Data: the supplement of paper PMC9170038

What was measured:
MS2 coat protein [1] = assay: apparent KD of MS2 coat protein, switch ON state; designed switch direction (-1 OFF switch, 1 ON switch): -1; higher = weaker reporter binding; conditions: FMN input: 0 or 200 uM; Eterna round: R93 (includes R88 designs)
How it was run: (§1)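 Illumina sequencing clusters served as templates for on-chip transcription of the designed RNA switches. SNAP-549-labelled MS2 coat protein was then titrated in twofold steps from 0.7 or 1.5 nM to 3 µM, allowing 0.8–1.5 h per step at first and 10–20 min per step later. The buffer held 100 mM Tris-HCl pH 7.5, 80 mM KCl and 4 mM MgCl2, without or with constant ligand. Apparent KD is the median per design of normalised cluster binding-curve fits.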

MS2 coat protein [2] = assay: apparent KD of MS2 coat protein, switch OFF state (with FMN for OFF switches, without FMN for ON switches); designed switch direction (-1 OFF switch, 1 ON switch): -1; higher = weaker reporter binding; conditions: FMN input: 0 or 200 uM; Eterna round: R93 (includes R88 designs)
How it was run: as §1

Sequence	apparent KD of MS2 coat protein (MS2 coat protein [1])	apparent KD of MS2 coat protein (MS2 coat protein [2])
AAAUUGUCAGGAUAUCUGGAUAGGAAAAAGAAAACCUAUCCAGAGAAGGGACAUGAGGAUCACCCAUGUAAAAA [JL cataway mod 1]	0.0811 µM	0.107 µM
AACAAACAUGAGGAUCACCCAUGUCAGGAUAUCGAAACAACAAACAACAAACAACAAACGAGAAGGGACAACAA [e1]	0.0192 µM	0.0238 µM
AACAAACAUGAGGAUCACCCAUGUCAGGAUAUGCACAAACAAACAAACAAACAAGCAAGCAGAAGGGACACAAC [Amethyst 89]	0.0137 µM	0.0276 µM
AACAAGACAGGAUAUACAUGAGGAUCACCCAUGUGAGAAUUAAGUGGCGUAACACAAAGUAGAAGGGUCAUGGA [Ruby 4]	0.038 µM	0.0562 µM
AACAAGUGAGGAUAUGAAAAUACAACAAACAAACAACUACAUCAGAAGGCACAUGAGGAUCACCCAUGUAAAAC [JR_Exc004_Sub1204]	0.019 µM	0.0207 µM
AACACACAUGAGGAUCACCCAUGUAAGGAUAUGCGAGCAAGAAGAAAGAACAGAAAAAGCAGAAGGUACACACA [Amethyst 75]	0.0296 µM	0.0295 µM
AACAGGUCAGGAUAUGUGGAAAAAAUAAAAAAAAUAAAAACACAGAAGGGACAUGAGGAUCACCCAUGUAAAUA [May 22]	0.058 µM	0.114 µM
AACAGUACAGGAUAUACAUGAGGAUCACCCAUGUAAAAAAAGGGUGGCGUACCACAAAGUAGAAGGGUACUGGA [Moding Maslow revisited (73) 10]	0.109 µM	0.0441 µM
AACAGUACAGGAUAUACAUGAGGAUCACCCAUGUAAAAAAGGGCUGGCGUACCAGAAAGUAGAAGGGUACUGGA [Moding Maslow revisited (73) 9]	0.0306 µM	0.0881 µM
AACAGUACAGGAUAUACAUGAGGAUCACCCAUGUAAAGGGAAUAAAACAAAAAAAAAUGUAGAAGGGUACUGGA [Mat - Exclusion 3 - Eli mod - D66]	0.0751 µM	0.11 µM
AACAGUACAGGAUAUACAUGAGGAUCACCCAUGUCACAACAAAGCAGCGUAACACAAAGUAGAAGGGUAAUGGA [Ruby 16]	0.0486 µM	0.0395 µM
AACAGUACAGGAUAUACAUGAGGAUCACCCAUGUGAAAAUAAAGUGGCGUACCACAAAGUAGAAGGGUACUGGA [Moding Maslow revisited (73) 4]	0.0288 µM	0.101 µM
AACAGUACAGGAUAUACAUGAGGAUCACCCAUGUGAAAGAAAAGUGGCGUACCACAAAGUAGAAGGGUACUGAA [Mat - Exclusion 3 - JL mod - D28]	0.0302 µM	0.134 µM
AACAGUACAGGAUAUACAUGAGGAUCACCCAUGUGAAGAUUAAGAAGAAACCCACAAAGUAGAAGGGUACUGGA [Ruby 92]	0.029 µM	0.0474 µM
AACAGUACAGGAUAUACAUGAGGAUCACCCAUGUGAGAAUUAAGUGGAAGACCACAAAGUAGAAGGGUACUGAA [Mat - Exclusion 3 - JL mod - D10]	0.0284 µM	0.189 µM
AACAGUACAGGAUAUACAUGAGGAUCACCCAUGUGAUAUAAAUAAAACAAAAAUAAAAGUAGAAGGGUACUGGA [Ruby 44]	0.0257 µM	0.0708 µM
AACAGUACAGGAUAUACAUGAGGAUCACCCAUGUGAUUAUCAAGUGCCGUAGCACGAAGUAGAAGGGUACUGGA	0.0603 µM	0.243 µM
AACAGUAGAGGAUAUACAUGAGGAUCACCCAUGUGAGAAACCACUGGCGUACCAGAAAGUAGAAGGCUACUGGA [Moding Maslow Revisited (73) 30]	0.103 µM	0.0346 µM
AACAUACAUGAGGAUCACCCAUGUCAGGAUAUGCCGGGUUAGAACCAAAAAAAAAAACGUAGAAGGGACAAAAA [Bilbo Confounded 4 - Jieux - Exclusion 1]	0.234 µM	0.14 µM
AACAUACAUGAGGAUCACCCAUGUCAGGAUAUGCCGGGUUAGAGCCAACUAAAAAAACGUAGAAGGGACAAAAA [Bilbo Confounded 6 - Jieux - Exclusion 1]	0.0627 µM	0.0557 µM
AACAUGUCAGGAUAUAUAAGAAAAGAAAAGAAAGAAAAGAAAUAGAAGGGACAUGAGGAUCACCCAUGUAAGAA [EteRNA is fun!]	0.0452 µM	0.029 µM
AACAUGUCAGGAUAUGUAAAAAAAAAAAAAAAAAAAAAAAUACAGAAGGGACAUGAGGAUCACCCAUGUCAGGG [EX4 391: Minimal 3]	0.0698 µM	0.0553 µM
